Experimental data from IntAct's records for PubMed 23064147.

B1: Spindle assembly abnormal protein 5 (Caenorhabditis elegans), Q20010 (parent)
chain: MNNYDDLPCSIYFKKPTVQEFVDQPRVFEDSEVPAFQEVLQLPQERTKPPVPSTQPIVAAVEVAKKKSCLSAPKPRKEPPSHPALRQKTVAFGKTVNVSQTVEGTSRNSKKVLASTMSAQNTTTTEEQAAENWRDAMKTELQTIRTEIQEETARRQEELNAQNLVKMQELMSNFFQKITIPKQQAIEPVEKDKENFHESPRQSRQQKPASKIASAREVIKRDGVIPPEALTIIEQRLRSDPMFRQQIDNVLADAECDANRAAYSPPPPMSEVRYGSGVNPALMRETLTVERSIRYDNGLASIDSRQWTNERRDNRAPDSYRTYEPDQPCHSLYQKGQSISYYPSEAAGKTTARNNRTGYYVEDSSDHEEDVVVNKRGQNYHEQAVPETPAERERRIREKYARRK
partner: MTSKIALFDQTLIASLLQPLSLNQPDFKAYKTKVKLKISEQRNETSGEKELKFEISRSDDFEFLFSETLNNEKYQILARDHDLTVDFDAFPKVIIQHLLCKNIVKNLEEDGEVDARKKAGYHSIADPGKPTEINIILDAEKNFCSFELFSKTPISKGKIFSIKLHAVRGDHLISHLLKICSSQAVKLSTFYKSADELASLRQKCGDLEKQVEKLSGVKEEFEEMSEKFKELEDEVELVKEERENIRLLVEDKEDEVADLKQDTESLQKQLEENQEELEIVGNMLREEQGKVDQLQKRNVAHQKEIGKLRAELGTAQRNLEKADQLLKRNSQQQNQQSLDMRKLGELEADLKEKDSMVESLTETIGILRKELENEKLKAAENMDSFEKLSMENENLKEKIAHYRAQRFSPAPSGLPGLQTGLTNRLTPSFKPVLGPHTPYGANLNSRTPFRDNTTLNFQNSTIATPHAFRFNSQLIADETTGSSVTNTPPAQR

Variants of: B1
Conditions: with sas6_caeel sas-6, O62479

Variant	effect of a mutation on the interaction
R397C	decreasing interaction

Variants of: B1
Conditions: with sas6_caeel sas-6, O62479
Remark: another data set of the same source

Variant	effect of a mutation on the interaction
R397C	disrupting interaction

Variants of: B1
Conditions: with sas6_caeel sas-6, O62479
Remark: another data set of the same source

Variant	effect of a mutation on the interaction
I396A	decreasing interaction

Variants of: B1
Conditions: with sas6_caeel sas-6, O62479
Remark: another data set of the same source

Variant	effect of a mutation on the interaction
I396A	disrupting interaction

Variants of: B1
Conditions: with sas6_caeel sas-6, O62479
Remark: another data set of the same source

Variant	effect of a mutation on the interaction
Y400A	decreasing interaction

Variants of: B1
Conditions: with sas6_caeel sas-6, O62479
Remark: another data set of the same source

Variant	effect of a mutation on the interaction
Y400A	disrupting interaction

Variants of: B1
Conditions: with sas6_caeel sas-6, O62479
Remark: another data set of the same source

Variant	effect of a mutation on the interaction
R403A	decreasing interaction

Variants of: B1
Conditions: with sas6_caeel sas-6, O62479
Remark: another data set of the same source

Variant	effect of a mutation on the interaction
R403A	disrupting interaction
